The results in this text go back to article doi:10.1101/2023.01.30.526221.

pKd: −log10 of the molar value.

Test [1] deals with PfRIPR (Plasmodium falciparum) (UniProt O97302). In words: SPR.
Test [2] concerns the target PfRIPR tail (Plasmodium falciparum) (UniProt O97302). The test can be described thus: SPR.
Test [3] concerns the target basigin ectodomain (human). In words: MST.
Test [4] concerns the target full-length human basigin (human). The test can be described thus: MST.

For PfCSS-PfPTRAMP complex, the pKd in test [1] and in test [2] was 5.52 each time.
Turning to PfRH5 (natural protein), the pKd in test [3] was 6.72; in test [4] it was 6.92.
